# From IntAct's records for PubMed 26749241
# B1: Succinate dehydrogenase [ubiquinone] iron-sulfur subunit, mitochondrial (Homo sapiens), P21912 (parent)
# chain: MAAVVALSLRRRLPATTLGGACLQASRGAQTAAATAPRIKKFAIYRWDPDKAGDKPHMQTYEVDLNKCGPMVLDALIKIKNEVDSTLTFRRSCREGICGSCAMNINGGNTLACTRRIDTNLNKVSKIYPLPHMYVIKDLVPDLSNFYAQYKSIEPYLKKKDESQEGKQQYLQSIEEREKLDGLYECILCACCSTSCPSYWWNGDKYLGPAVLMQAYRWMIDSRDDFTEERLAKLQDPFSLYRCHTIMNCTRTCPKGLNPGKAIAEIKKMMATYKEKKASV
# partner: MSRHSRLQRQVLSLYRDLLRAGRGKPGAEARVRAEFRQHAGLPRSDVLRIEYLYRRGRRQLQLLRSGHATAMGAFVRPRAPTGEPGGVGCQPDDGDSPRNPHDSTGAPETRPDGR
# Variants of: B1
# Details: with sdhf1_human SDHAF1, A6NFY7
row,effect of a mutation on the interaction,Variant
1,disrupting interaction strength,MAAVVALSLRRRLPATTLGGACLQASRGAQTAAATAPRIKKFAIYRWDPDKAGDKPHMQTYEVDLNKCGPMVLDALIKIKNEVDSTLTFRRSCREGICGSCAMNINGGNTLACTRRIDTNLNKVSKIYPLPHMYVIKDLVPDLSNFYAQYKSIEPYLKKKDESQEGKQQYLQSIEEREKLDGLYECILCACCSTSCPAAAAAGDKYLGPAVLMQAYRWMIDSRDDFTEERLAKLQDPFSLYRCHTIMNCTRTCPKGLNPGKAIAEIKKMMATYKEKKASV [S198A;Y199A;W200A;W201A;N202A]
2,disrupting interaction strength,MAAVVALSLRRRLPATTLGGACLQASRGAQTAAATAPRIKKFAIYRWDPDKAGDKPHMQTYEVDLNKCGPMVLDALIKIKNEVDSTLTFRRSCREGICGSCAMNINGGNTLACTRRIDTNLNKVSKIYPLPHMYVIKDLVPDLSNFYAQYKSIEPYLKKKDESQEGKQQYLQSIEEREKLDGAAACILCACCSTSCPSYWWNGDKYLGPAVLMQAYRWMIDSRDDFTEERLAKLQDPFSLYRCHTIMNCTRTCPKGLNPGKAIAEIKKMMATYKEKKASV [L183A;Y184A;E185A]
3,increasing interaction strength,MAAVVALSLRRRLPATTLGGACLQASRGAQTAAATAPRIKKFAIYRWDPDKAGDKPHMQTYEVDLNKCGPMVLDALIKIKNEVDSTLTFRRSCREGICGSCAMNINGGNTLACTRRIDTNLNKVSKIYPLPHMYVIKDLVPDLSNFYAQYKSIEPYLKKKDESQEGKQQYLQSIEEAEAAAGLYECILCACCSTSCPSYWWNGDKYLGPAVLMQAYRWMIDSRDDFTEERLAKLQDPFSLYRCHTIMNCTRTCPKGLNPGKAIAEIKKMMATYKEKKASV [R177A;K179A;L180A;D181A]
